Measured values reported in IntAct's records for PubMed 23523425.

B1: Polycomb complex protein BMI-1 (Homo sapiens), P35226 (parent)
chain: MHRTTRIKITELNPHLMCVLCGGYFIDATTIIECLHSFCKTCIVRYLETSKYCPICDVQVHKTRPLLNIRSDKTLQDIVYKLVPGLFKNEMKRRRDFYAAHPSADAANGSNEDRGEVADEDKRIITDDEIISLSIEFFDQNRLDRKVNKDKEKSKEEVNDKRYLRCPAAMTVMHLRKFLRSKMDIPNTFQIDVMYEEEPLKDYYTLMDIAYIYTWRRNGPLPLKYRVRPTCKRMKISHQRDGLTNAGELESDSGSDKANSPAGGIPSTSSCLPSPSTPVQSPHPQFPHISSTMNGTSNSPSGNHQSSFANRPRKSSVNGSSATSSG
partner: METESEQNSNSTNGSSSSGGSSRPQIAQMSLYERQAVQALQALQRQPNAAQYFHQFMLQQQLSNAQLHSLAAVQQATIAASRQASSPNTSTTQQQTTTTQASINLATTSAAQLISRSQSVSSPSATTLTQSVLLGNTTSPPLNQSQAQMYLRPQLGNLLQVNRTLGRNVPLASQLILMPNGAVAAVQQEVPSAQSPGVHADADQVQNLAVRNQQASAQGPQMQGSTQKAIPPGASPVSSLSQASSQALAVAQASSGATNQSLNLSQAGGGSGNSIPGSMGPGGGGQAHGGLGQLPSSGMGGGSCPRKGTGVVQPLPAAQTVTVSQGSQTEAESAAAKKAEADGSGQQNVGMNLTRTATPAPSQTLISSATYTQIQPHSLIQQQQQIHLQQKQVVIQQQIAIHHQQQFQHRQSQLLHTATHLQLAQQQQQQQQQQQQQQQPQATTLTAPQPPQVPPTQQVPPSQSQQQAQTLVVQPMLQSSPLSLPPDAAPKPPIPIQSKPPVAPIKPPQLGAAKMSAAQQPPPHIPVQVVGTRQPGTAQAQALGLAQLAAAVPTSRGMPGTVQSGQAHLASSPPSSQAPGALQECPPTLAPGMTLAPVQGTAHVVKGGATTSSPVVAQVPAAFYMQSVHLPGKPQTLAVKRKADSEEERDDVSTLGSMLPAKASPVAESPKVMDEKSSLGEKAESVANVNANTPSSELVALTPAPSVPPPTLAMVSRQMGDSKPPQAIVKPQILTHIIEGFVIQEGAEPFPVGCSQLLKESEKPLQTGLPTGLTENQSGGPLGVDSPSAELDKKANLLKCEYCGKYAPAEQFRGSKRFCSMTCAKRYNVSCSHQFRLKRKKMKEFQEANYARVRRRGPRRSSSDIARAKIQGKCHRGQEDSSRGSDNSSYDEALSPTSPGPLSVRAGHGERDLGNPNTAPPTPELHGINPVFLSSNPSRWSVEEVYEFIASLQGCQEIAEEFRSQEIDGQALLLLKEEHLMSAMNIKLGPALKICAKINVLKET
B2: Polycomb group RING finger protein 2 (Homo sapiens), P35227 (parent)
chain: MHRTTRIKITELNPHLMCALCGGYFIDATTIVECLHSFCKTCIVRYLETNKYCPMCDVQVHKTRPLLSIRSDKTLQDIVYKLVPGLFKDEMKRRRDFYAAYPLTEVPNGSNEDRGEVLEQEKGALSDDEIVSLSIEFYEGARDRDEKKGPLENGDGDKEKTGVRFLRCPAAMTVMHLAKFLRNKMDVPSKYKVEVLYEDEPLKEYYTLMDIAYIYPWRRNGPLPLKYRVQPACKRLTLATVPTPSEGTNTSGASECESVSDKAPSPATLPATSSSLPSPATPSHGSPSSHGPPATHPTSPTPPSTASGATTAANGGSLNCLQTPSSTSRGRKMTVNGAPVPPLT
partner: B1 partner

Variants of: B1
Settings: with phc1_human PHC1, P78364

effect of a mutation on the interaction	Variant
decreasing interaction strength	Y163A
decreasing interaction strength	F178D
decreasing interaction strength	R165A

Variants of: B2
Settings: with phc1_human PHC1, P78364

effect of a mutation on the interaction	Variant
decreasing interaction strength	F180D
decreasing interaction strength	F165A
decreasing interaction strength	R164A
